# Data reported in paper PMC7665192, “A natriuretic peptide from Arabidopsis thaliana (AtPNP-A) can modulate catalase 2 activity” (Scientific Reports, 2020).
# Positions of bridges follow the written chain, without caps; N, C: chain ends. No end group written: not given here.
# T1: bovine liver catalase (CAT) (bovine, UniProt P00432 1-527)
# T1 construct: catalase from bovine liver, Sigma C-40; also called bovine CAT; CAT from bovine liver; source: bought: Sigma (C-40)
# T1 sequence (looked up): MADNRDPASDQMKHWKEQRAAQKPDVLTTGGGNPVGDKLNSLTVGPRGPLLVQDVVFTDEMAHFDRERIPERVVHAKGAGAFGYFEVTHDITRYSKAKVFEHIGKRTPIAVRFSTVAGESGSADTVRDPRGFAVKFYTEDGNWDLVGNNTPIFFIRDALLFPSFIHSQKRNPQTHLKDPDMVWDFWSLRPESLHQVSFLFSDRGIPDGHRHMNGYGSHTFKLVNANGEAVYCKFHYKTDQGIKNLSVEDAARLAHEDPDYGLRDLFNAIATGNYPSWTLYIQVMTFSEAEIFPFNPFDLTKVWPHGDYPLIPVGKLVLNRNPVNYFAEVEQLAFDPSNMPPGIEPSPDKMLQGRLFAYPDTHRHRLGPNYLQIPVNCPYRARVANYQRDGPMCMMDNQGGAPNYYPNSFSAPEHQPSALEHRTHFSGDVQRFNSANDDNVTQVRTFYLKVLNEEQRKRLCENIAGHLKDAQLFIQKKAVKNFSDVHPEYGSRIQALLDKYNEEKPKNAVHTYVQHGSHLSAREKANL
# B1: synthetic peptide containing the active region of AtPNP-A (amino acids 33-66) (peptide)
# peptide: PYTRSACYGTQRETLVVGVKNNLWQNGRACGRRY
# modifications: disulfide 7-30 (inferred); also: synthesized with or without C-terminal biotin
# notes: active region of Arabidopsis thaliana plant natriuretic peptide A (AtPNP-A), amino acids 33-66; also called pAtPNP-A; AtPNP-A peptide; source: synthetic peptide (GenScript, purity > 95%)
# B2: rAtPNP-A: N-terminally 6xHis-tagged AtPNP-A expressed in BL21 (DE3) One Shot E. coli cells (protein)
# chain: AQGKAVYYDPPYTRSACYGTQRETLVVGVKNNLWQNGRACGRRYRVRCIGATYNFDRACTGRTVDVKVVDFCREPCNGDLNLSRDAFRVIANTDAGNIRVVYTPI
# modifications: left off: His6, N-terminal, state not stated
# notes: N-terminally 6xHis-tagged AtPNP-A expressed in BL21 (DE3) One Shot E. coli cells
# B3: NeYFP-fused AtPNP-A: N-terminal (NeYFP) fragment of eYFP followed by AtPNP-A coding region (protein)
# chain: AQGKAVYYDPPYTRSACYGTQRETLVVGVKNNLWQNGRACGRRYRVRCIGATYNFDRACTGRTVDVKVVDFCREPCNGDLNLSRDAFRVIANTDAGNIRVVYTPI
# modifications: left off: NeYFP (N-terminal fragment of eYFP), N-terminal, kept
# B4: CeYFP-AtPNP-A: C-terminal (CeYFP) fragment of eYFP followed by AtPNP-A coding region (protein)
# chain: AQGKAVYYDPPYTRSACYGTQRETLVVGVKNNLWQNGRACGRRYRVRCIGATYNFDRACTGRTVDVKVVDFCREPCNGDLNLSRDAFRVIANTDAGNIRVVYTPI
# modifications: left off: CeYFP (C-terminal fragment of eYFP), N-terminal, kept
# Key:
# CAT2 transcript = conditions: exogenous application; cited from earlier work
# Source text: It is also conceivable that modulation of CAT2 activity by AtPNP-A may not only have implications for plant biotic stress tolerance but may also result in changes in responses to abiotic stress. Activity of CAT2 is required for decomposition of photorespiration-derived H2O2 preventing redox perturbation under ambient growth conditions[59] while CAT2 deficiency causes a defective photorespiration phenotype including suppressed growth[58],[59] and accumulation of H2O2 in leaves. During senescence suppression of CAT2 function, mediated by G-BOX BINDING FACTOR1 (GBF1)[76], decreases CAT2 activ ...
# [1] = biological target: T1, bovine liver catalase (CAT); assay: SPR; Biacore T100, 20 °C; bovine liver CAT immobilised by amine coupling on a CM5 chip; pAtPNP-A at 3.78 μM and consecutive twofold dilutions, 11 injections, flow 100 μL/min; regeneration with glycine pH 2.0; kinetic fit with mass transfer term; conditions: both partners purified
# rCAT2 [2] = assay: SPR of CAT2 and AtPNP-A recombinant proteins, CM5 chip, both configurations; format: binding, Arabidopsis thaliana; conditions: amine coupling, 20 °C
# Experimental: N-terminally 6xHis-tagged AtPNP-A and CAT2 proteins were expressed in BL21 (DE3) One Shot E. coli cells (Life Technologies), purified by affinity chromatography with Ni–NTA beads (Qiagen) and HisTrap HP column (GE Healthcare Lifesciences) as described in[21]. The purity of preparations was verified on 12.5% SDS-PAGE, stained with Coomassie Brilliant Blue (Bio-Rad). Protein identities were confirmed in MS analysis, and protein concentration was determined according to the method of Bradford using BSA as a standard.
# SPR experiments were performed at 20 °C on Biacore T100 instrument operated using Biacore T100 control software (version 2.0.2, GE Healthcare Lifesciences) using Series S CM5 or NTA sensor chips as described in[21]. Kinetic analyses were performed at the flow of 100 μL min^−1 with pAtPNP-A (at 3.78 μM and consecutive twofold dilutions; 11 injections included) employed as a ligand and bovine liver CAT (C-40; Sigma) used as an analyte and immobilized on the active surface of the Series S CM5 sensor chip with amine coupling kit, while the surface regeneration was done with solution of glycine, pH 2.0, and the final sensorgram was generated with Scrubber (BioLogic Software Pty Ltd).
# Supplementary Figure S3. In vitro association of AtPNP-A and CAT2 recombinant proteins.
# (a) Recombinant protein preparations used in SPR analyses. […]
# [3] = test system: A. thaliana (Col-0) mesophyll cell protoplasts; assay: Mesophyll cell protoplast swelling (volume); format: cell-based, Arabidopsis thaliana; conditions: 100 nM peptide or 1 μg mL^−1 rAtPNP-A, 0.4 M mannitol, 20 min, room temperature, n = 50, P < 0.0001
# Source text: Peptides containing amino acid sequence of the active region of AtPNP-A and corresponding scrambled peptides, having the same amino acid composition but in a randomized order (Fig. 1a), with or without C-terminal biotin tag, were synthesized by GenScript (Piscataway, USA) at the purity level > 95% verified with HPLC and their biological activity was verified as described previously.
# Figure 1 Biologically active peptide containing the active region of AtPNP-A protein binds to CAT2. (a) Domain organization of AtPNP-A and the amino acid sequences of C-terminally biotinylated peptides used in affinity chromatography-based experiments—a peptide containing the active site of AtPNP-A (indicated as pAtPNP-A) or the corresponding scrambled peptide (indicated as pScr). Cysteine residues forming a disulfide bond, characteristic to natriuretic peptide (NP)-like molecules, are underlined. SP, signal peptide. (b) Assaying biological activity of the AtPNP-A peptide (pAtPNP-A) and purified recombinant protein (rAtPNP-A). […] In each treatment, 50 randomly selected protoplasts with diameter > 20 µm were included in quantitative analysis (scale bar = 20 µm). Protoplast volume was measured and the data obtained from an exemplar experiment are plotted. […]
# CAT = assay: Total CAT activity in protein extracted from WT seedlings; format: biochemical, Arabidopsis thaliana; conditions: 1 nM
# Experimental: (§1) Enzymatic activity of CAT isozymes and total CAT activities of protein extracted from WT and atpnp-a or cat2-2 mutant lines, when indicated sprayed with 1 nM pAtPNP-A or pScr 20 min before harvesting, were determined zymographically and spectrophotometrically, as described in[56]. Relative quantification of intensity of bands corresponding to different CAT isoforms was performed with ImageJ version 1.48 (https://imagej.nih.gov/ij/). Enzymatic activity of the rCAT2 in the presence of absence of 100 nM rAtPNP-A, pAtPNP-A or pScr were determined with the use of Amplex Red catalase assay kit (Invitrogen) according to the manufacturer’s instructions.
# (§2) Figure 3 AtPNP-A directly interacts with CAT2 to modulate its enzymatic activity in vitro. (a) Zymogram depicting changes in the enzymatic activity of CAT isoforms extracted from wild type (WT) or cat2-2 knockout mutant seedlings in response to 1 nM pAtPNP-A or pScr. Densitometric semi-quantification of bands corresponding to CAT2, normalized to the loading control (dark-coloured band on zymogram) for WT samples treated with 1 nM pAtPNP-A or pScr (mean ± SD, Student’s t-test, n = 3, P < 0.05). […] (b) Total CAT activity in protein extracted from WT seedlings assayed with Amplex Red catalase assay kit in the presence of 1 nM pAtPNP-A, rAtPNP-A, or pScr. […] (c) Enzymatic activity of rCAT2 in the presence of 100 nM pAtPNP-A, rAtPNP-A, or pScr.
# rCAT2 [4] = assay: Enzymatic activity of rCAT2, Amplex Red catalase assay; format: biochemical, Arabidopsis thaliana; conditions: 100 nM, Amplex Red catalase assay kit; three independent experiments, P < 0.01
# Experimental: as §1, §2
# CAT2 = assay: Bimolecular fluorescence complementation (BiFC); format: cell-based, Arabidopsis thaliana; conditions: chloroplasts of tobacco leaf protoplasts, NeYFP/CeYFP fusions, mean ± SEM, n = 30, P < 0.0001
# Source text: The full-length A. thaliana AtPNP-A (At2g18660) coding region entry plasmid pENTRYAtPNP-A[46] and pCR8/GW-TOPOCAT2 were recombined separately with both pSITE-nEYFP-C1 [GenBank Accession Number GU734651] and pSITE-cEYFP-C1 [GenBank Accession Number GU734652] to create pNeYFP-AtPNP-A, pCeYFP-AtPNP-A, pNeYFP-CAT2 and pCeYFP-CAT2, respectively. Each plasmid has either the N-terminal (NeYFP) or C-terminal (CeYFP) fragment of eYFP followed by either AtPNP-A or CAT2 coding region driven by the 35S plant expression promoter. After sequence was confirmed each plasmid was transformed separately into Agrobacterium tumefaciens strain GV3101 (pMP90). Tobacco leaves were infiltrated as previously described in[50]. Briefly, A. tumefaciens strains grown in 2YT medium were harvested by centrifugation and resuspended in infiltration medium (10 mM MES pH 5.6, 10 mM MgCl2, 150 µM acetosyringone) to a final OD600 of 0.2. Equal volumes of infiltration media containing relevant BiFC strains were mixed and infiltrated into the underside of tobacco leaves using a needleless syringe. Leaves were harvested after 3 days to isolate protoplasts following[51] and then immediately imaged.
# BiFC images were captured at the La Trobe University LIMS BioImaging Facility using a LSM 510 confocal laser scanning microscope (Zeiss), with a × 40/1.2 water immersion objective. The natural red autofluorescence of chlorophyll was used as a marker for chloroplasts. Excitation/emission wavelengths were 488/505–530 nm for YFP and 561/650 nm long pass for red fluorescence. At least three images containing one or more protoplasts were taken for each of the plasmid construct combinations. Each image captured three separate filter scans, including YFP, red fluorescence and bright field. Post-processing of images was performed with ImageJ version 1.48 software (https://imagej.nih.gov/ij/). For each image the contrast for each panel was set at automatic contrast. A merged image was generated for reference with a 10 µm scale bar. The red fluorescence only panel was used to encircle ten chloroplasts as region of interest (ROI), then the YFP fluorescence (BiFC) calculated for each ROI was divided by the red fluorescence calculated for the same ROI. All BiFC/red fluorescence points were plotted using GraphPadPrism7 (GraphPadSoftware). Mean and standard error were calculated for each BiFC combination. All statistical analyses were performed using GraphPadPrism7.
# Figure 4 AtPNP-A interacts with CAT2 in vivo. […] Exemplar merged images of protoplasts isolated from a leaf infiltrated with different combinations of N- or C-terminally tagged CAT2 and AtPNP-A are shown. (g) BiFC/Red fluorescence chloroplast analysis with mean ± SEM in pink.
molecule,measurement,setting,value
O=C(O)c1ccccc1O [SA],CAT2 transcript,CAT2 transcript,Increases in CAT2 transcript
B1,koff,[1],0.000941 s⁻¹
same,kon,[1],10900 M⁻¹ s⁻¹
B2,SPR binding of recombinant AtPNP-A to CAT2,rCAT2 [2],bind specifically to CAT2
same,Protoplast swelling response (volume),[3],comparable to that elicited by an equimolar amount of the recombinant AtPNP-A (rAtPNP-A)
same,Total CAT activity of protein extracts,"CAT; WT seedling protein, Amplex Red kit, mean ± SD, n = 3, P < 0.05",elevated total CAT activity
same,H2O2 breakdown by WT seedling protein extract,"CAT; total protein extracted from WT seedlings, n = 3",more rapid H2O2 breakdown
same,In vitro enzymatic activity of rCAT2,rCAT2 [4],significantly enhanced
B3,"BiFC / Red fluorescence signal, interaction with CAT2",CAT2,Lower BiFC/fluorescence signal
B4,"BiFC / Red fluorescence signal, interaction with CAT2",CAT2,significantly higher
same,"BiFC / Red fluorescence signal, interaction with CAT2",CAT2; listed as CeYFP-tagged AtPNP-A,greatest BiFC / Red fluorescence signal
